Key:
gel-filtered platelets [1] = test: Platelet aggregation (nephelometric aggregometry); assay type: cell-based, human; details: 5 μM ADP
Protocol: (§1) Venous blood, anticoagulated with 1-mM trisodium citrate, was obtained from volunteers who had not consumed acetylsalicylic acid for at least ten days. Platelet-rich plasma (PRP) was prepared by centrifugation at 150 g for ten minutes at 25° C. Platelet counts were determined with a Coulter counter (model ZM; Coulter Electronics, Hialeah, Fla.).
(§2) Platelets were gel-filtered on a 4× 10 cm column of Sepharose 2B in Tyrode's Hepes buffer as described previously (Hawiger et al., Nature 2831:195–198 (1980), herein incorporated by reference). Platelets were typically suspended at a concentration of 1.5×10^8/ml and were used within 30 minutes of preparation. Platelet aggregation was monitored using a standard nephelometric technique (Born, et al., J. Physiol. 168:178–195 (1963), herein incorporated by reference), in which 0.3-ml aliquots of gel-filtered platelets were incubated at 37° C. and stirred at 1000 rpm in a PAP-4 aggregometer (Biodata, Hatboro, Pa.). Gel-filtered platelets were preincubated with t-PA or S—NO-t-PA for up to 45 minutes and aggregations induced with 5 μM ADP or 0.025 U/ml thrombin.
Aggregations were quantified by measuring the maximal rate or extent of light transmittance and expressed as a normalized value relative to control aggregations.
The effect of S-nitroso-BSA on platelet aggregation was studied, using a gel-filtered platelet preparation, as previously described (Hawiger et al., Nature 2831:195 (1980)) and suspended at 150,000 platelets/ul in HEPES buffer, pH 7.35. S—NO-BSA was incubated with platelets for ten minutes at 37° C. in a PAP-4 aggregometer (BioData, Hatboro, Pa.), after which aggregations were induced with 5 μM ADP. Aggregations were quantified by measuring the extent of change of light transmittance and expressed as a normalized value relative to control aggregations.

gel-filtered platelets [2] = test: Intracellular platelet cyclic GMP (radioimmunoassay); assay type: cell-based, human
Protocol: as §1, §2
The antiplatelet actions of S-nitrosothiols are mediated by cyclic GMP. Measurements of cGMP were performed by radioimmunoassay. Gel-filtered platelets were pre-incubated for 180 seconds with S—NO-t-PA (9 μM), and related controls. […]

[3] = Amidolytic activity against chromogenic substrate S2288; assay type: biochemical; details: S2288 hydrolysis; for Km: 25° C., TBS
Protocol: (§3) The amidolytic activities of t-PA and its S-nitrosylated derivative were measured using the relatively specific chromogenic substrate, S2288. Substrate hydrolysis was measured spectrophotometrically at 405 nm with a Gilford Response UV/Vis Spectrophotometer (CIBA-Corning, Oberlin, Ohio). Activity was measured at 25° C. in TBS using substrate concentrations varying from 0.1–2.0 mM and t-PA at a concentration of 100 nM. Kinetic parameters were determined from initial rates by double reciprocal plot analysis. The assessment of inhibition of t-PA and S—NO-t-PA enzymatic activity by PAI-1 was made at an enzyme concentration of 10 nM and a molar ratio of t-PA to active PAI-1 of 1.0. The degree of inhibition was determined relative to the initial rates in the absence of the inhibitor.

glu-plasminogen = target: T1, glu-plasminogen (Homo sapiens, UniProt P00747); test: Coupled enzyme assay: activation of glu-plasminogen (S2251), with and without fibrinogen; assay type: biochemical; details: for Km / kcat: GLU-plasminogen (S2251) activation
T1 construct: Glu-plasminogen was purified from fresh frozen plasma; from tissue; host or cells: fresh frozen plasma (lysine-Sepharose, then benzamidine-Sepharose)
T1 sequence (P00747 20-810 limits assumed): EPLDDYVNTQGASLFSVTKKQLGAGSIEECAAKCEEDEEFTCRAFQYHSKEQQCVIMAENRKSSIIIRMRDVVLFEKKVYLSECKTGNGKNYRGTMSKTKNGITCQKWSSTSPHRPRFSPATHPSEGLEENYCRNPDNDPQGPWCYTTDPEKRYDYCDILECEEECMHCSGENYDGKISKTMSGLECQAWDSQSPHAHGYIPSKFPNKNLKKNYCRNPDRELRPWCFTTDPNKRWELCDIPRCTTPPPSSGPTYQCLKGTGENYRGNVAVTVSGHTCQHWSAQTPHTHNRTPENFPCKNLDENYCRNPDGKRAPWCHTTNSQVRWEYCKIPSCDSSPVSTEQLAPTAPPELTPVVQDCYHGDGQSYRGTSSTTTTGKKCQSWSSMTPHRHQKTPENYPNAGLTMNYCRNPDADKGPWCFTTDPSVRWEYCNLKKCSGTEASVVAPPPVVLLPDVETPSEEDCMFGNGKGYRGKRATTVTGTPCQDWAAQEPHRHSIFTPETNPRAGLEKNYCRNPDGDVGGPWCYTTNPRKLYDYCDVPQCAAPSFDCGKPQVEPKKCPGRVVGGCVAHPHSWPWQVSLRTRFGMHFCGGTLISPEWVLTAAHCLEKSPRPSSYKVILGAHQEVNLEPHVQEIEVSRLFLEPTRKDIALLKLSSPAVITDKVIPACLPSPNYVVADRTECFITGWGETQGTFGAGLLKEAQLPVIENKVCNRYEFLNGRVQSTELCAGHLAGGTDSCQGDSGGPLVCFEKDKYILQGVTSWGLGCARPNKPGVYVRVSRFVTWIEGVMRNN
Protocol: Glu-plasminogen was purified from fresh frozen plasma thawed at 37° C. using a modification of the method of Deutsch and Mertz (Deutsch et al., Science 170:1095–1096 (1970), herein incorporated by reference). Plasma was passed over a lysine-Sepharose column and the column washed with 0.3 M sodium phosphate, pH 7.4, 3 mM EDTA. Plasminogen was eluted from the column with 0.2 M epsilon-aminocaproic acid, 3 mM EDTA, pH 7.4 Contaminant plasmin was removed by passing the eluted column over benzamidine sepharose 2B. The plasminogen obtained was subsequently dialyzed before use against 10 mM sodium phosphate, pH 7.4, 0.15 M NaCl.
In the coupled enzyme assay, t-PA and S—NO-t-PA activities were assayed using the […] S2251. In selected experiments, fibrinogen stimulation of enzymatic activity was assessed at a fibrinogen concentrations of 1 mg./ml. Substrate hydrolysis was measured spectrophotometrically with a Dynatech MR 5000 Card Reader (Dynatech, Chantilly, Va.) in TBS, pH 7.4, at 25° C. Initial reaction velocity was determined from the slope of the plot of absorbance (at 405 nm)/time vs. time (Randy, M. Biochim. Biophysica Acta 704:461–469 (1982)) using glu-plasminogen concentrations ranging from 0.1–10 μM at an S2251 concentrations of 0.8 mM. Kinetic parameters were determined from initial rates by double reciprocal plot analysis.

gel-filtered platelets [4] = test: Platelet aggregation (nephelometric aggregometry); assay type: cell-based, human; details: for % Normalized Extent Aggregation: Thrombin (0.024 U/ml), (150 μM) as printed, mean ±S.D.
PAI-1 = target: T2, PAI-1 (Homo sapiens, UniProt P05121); test: Inhibition of t-PA and S—NO-t-PA enzymatic activity by PAI-1 (S2288); assay type: biochemical; details: direct chromogenic assay with S2288; n=3
T2 construct: gift of Dr. Douglas E. Vaughan
T2 sequence (P05121 24-402, species assumed): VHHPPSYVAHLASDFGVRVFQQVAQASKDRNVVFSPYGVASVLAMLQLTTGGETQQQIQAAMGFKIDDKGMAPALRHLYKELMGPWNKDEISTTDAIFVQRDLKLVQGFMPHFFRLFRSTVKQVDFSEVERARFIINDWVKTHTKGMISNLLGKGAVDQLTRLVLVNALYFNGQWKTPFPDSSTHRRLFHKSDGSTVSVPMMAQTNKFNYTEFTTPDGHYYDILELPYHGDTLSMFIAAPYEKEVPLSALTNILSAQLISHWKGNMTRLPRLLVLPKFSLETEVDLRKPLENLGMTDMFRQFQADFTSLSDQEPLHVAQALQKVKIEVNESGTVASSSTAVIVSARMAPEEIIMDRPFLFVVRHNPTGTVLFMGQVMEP
Protocol: as §3

| Substance | effect on platelet aggregation, synthesized with authentic EDRF (gel-filtered platelets [1]; 333 nM, preincubated ten minutes) | inhibition in rate and extent of aggregation (gel-filtered platelets [1]; 1.4 μM, mean ±S.D., n=4) [%] | increase in intracellular cyclic GMP above basal levels (gel-filtered platelets [2]; 9 μM, 180 seconds, basal in the presence of t-PA) [%] | elevation in platelet cGMP after preincubation with methylene blue (gel-filtered platelets [2]; methylene blue 10 μM for ten minutes) | kcat [3] [s⁻¹] | Km [3] [µM] | fibrinogen stimulation greater than t-PA (glu-plasminogen; 0.1 μM plasminogen, fibrinogen 1 mg./ml) [fold] | Km (glu-plasminogen) [µM] | kcat (glu-plasminogen) [s⁻¹] | degree of fibrinogen stimulation compared with wild type t-PA (glu-plasminogen; physiologic (1 μM) plasminogen) | catalytic efficiency greater than that of native t-PA (glu-plasminogen; plasminogen activation) [%] | concentrations at which inhibition of platelet aggregation was demonstrable (gel-filtered platelets [4]; ADP (5 μM) or thrombin (0.024 U/ml)) [nM] | % Normalized Extent Aggregation (gel-filtered platelets [4]) [%] | inhibition of hydrolytic activity by PAI-1 (PAI-1) |
| --- | --- | --- | --- | --- | --- | --- | --- | --- | --- | --- | --- | --- | --- | --- |
| S—NO-t-PA: derived from the nitrosylation of tissue-type plasminogen activator (t-PA) | inhibition of platelet aggregation | 50±16 | 85 | entirely prevented | 0.52 | 295 | 3.5 | 3.8 | 0.262 | equivalent | 23 | 15 to 150 | 0.73 ± 0.28 | equally effective |
| t-PA: tissue-type plasminogen activator, provided by Genentech |  |  |  |  | 0.52 | 280 |  | 3.5 | 0.200 |  |  |  | 0.90 ± 0.15 | equally effective |

— patent US7033999B2, “Nitrosated and nitrosylated heme proteins” (Brigham and Women's Hospital, priority 1991, dated 2006)
